In test [1] the target is T1, 10xHis-mRuby2-Spt6 (239-1451) (S. cerevisiae, UniProt P23615 239-1451).
T1 sequence (looked up): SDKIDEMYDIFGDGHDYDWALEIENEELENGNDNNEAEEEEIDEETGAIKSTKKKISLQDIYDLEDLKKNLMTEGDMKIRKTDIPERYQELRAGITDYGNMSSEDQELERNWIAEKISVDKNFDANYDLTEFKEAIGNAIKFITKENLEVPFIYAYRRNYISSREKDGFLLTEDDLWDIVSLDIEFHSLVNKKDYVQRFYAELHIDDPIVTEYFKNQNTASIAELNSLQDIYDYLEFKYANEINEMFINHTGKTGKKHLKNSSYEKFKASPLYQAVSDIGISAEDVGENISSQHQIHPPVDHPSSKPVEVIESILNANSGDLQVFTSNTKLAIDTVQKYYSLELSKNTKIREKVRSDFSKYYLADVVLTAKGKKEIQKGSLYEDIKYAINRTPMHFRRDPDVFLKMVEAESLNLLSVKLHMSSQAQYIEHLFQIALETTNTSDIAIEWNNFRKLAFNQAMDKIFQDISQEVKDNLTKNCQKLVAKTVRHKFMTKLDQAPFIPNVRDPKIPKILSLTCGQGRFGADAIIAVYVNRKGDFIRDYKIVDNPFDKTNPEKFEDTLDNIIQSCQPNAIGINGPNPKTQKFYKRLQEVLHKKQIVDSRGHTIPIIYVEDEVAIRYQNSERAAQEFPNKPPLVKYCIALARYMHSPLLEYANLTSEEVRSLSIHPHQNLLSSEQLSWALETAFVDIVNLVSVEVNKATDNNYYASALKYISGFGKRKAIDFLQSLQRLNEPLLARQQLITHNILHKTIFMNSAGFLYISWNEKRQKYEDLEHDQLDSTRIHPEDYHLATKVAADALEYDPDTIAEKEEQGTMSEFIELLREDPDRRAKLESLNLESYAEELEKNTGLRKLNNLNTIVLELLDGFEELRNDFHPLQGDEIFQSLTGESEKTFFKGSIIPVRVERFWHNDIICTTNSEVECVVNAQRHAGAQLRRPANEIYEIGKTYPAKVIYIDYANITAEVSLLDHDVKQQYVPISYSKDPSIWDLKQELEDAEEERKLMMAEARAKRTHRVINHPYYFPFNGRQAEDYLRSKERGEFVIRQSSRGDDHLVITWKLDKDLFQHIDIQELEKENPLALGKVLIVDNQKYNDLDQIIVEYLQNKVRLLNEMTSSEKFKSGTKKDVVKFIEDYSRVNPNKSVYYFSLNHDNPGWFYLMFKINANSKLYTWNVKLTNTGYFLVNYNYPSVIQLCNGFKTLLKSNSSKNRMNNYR
In words: native gel or EMSA. In general terms: Mobility shift assays separate free from complexed probe on a gel.

Another test concerns the target T2, Spt6 (239-1451) (S. cerevisiae, UniProt P23615 239-1451).
T2 sequence (looked up): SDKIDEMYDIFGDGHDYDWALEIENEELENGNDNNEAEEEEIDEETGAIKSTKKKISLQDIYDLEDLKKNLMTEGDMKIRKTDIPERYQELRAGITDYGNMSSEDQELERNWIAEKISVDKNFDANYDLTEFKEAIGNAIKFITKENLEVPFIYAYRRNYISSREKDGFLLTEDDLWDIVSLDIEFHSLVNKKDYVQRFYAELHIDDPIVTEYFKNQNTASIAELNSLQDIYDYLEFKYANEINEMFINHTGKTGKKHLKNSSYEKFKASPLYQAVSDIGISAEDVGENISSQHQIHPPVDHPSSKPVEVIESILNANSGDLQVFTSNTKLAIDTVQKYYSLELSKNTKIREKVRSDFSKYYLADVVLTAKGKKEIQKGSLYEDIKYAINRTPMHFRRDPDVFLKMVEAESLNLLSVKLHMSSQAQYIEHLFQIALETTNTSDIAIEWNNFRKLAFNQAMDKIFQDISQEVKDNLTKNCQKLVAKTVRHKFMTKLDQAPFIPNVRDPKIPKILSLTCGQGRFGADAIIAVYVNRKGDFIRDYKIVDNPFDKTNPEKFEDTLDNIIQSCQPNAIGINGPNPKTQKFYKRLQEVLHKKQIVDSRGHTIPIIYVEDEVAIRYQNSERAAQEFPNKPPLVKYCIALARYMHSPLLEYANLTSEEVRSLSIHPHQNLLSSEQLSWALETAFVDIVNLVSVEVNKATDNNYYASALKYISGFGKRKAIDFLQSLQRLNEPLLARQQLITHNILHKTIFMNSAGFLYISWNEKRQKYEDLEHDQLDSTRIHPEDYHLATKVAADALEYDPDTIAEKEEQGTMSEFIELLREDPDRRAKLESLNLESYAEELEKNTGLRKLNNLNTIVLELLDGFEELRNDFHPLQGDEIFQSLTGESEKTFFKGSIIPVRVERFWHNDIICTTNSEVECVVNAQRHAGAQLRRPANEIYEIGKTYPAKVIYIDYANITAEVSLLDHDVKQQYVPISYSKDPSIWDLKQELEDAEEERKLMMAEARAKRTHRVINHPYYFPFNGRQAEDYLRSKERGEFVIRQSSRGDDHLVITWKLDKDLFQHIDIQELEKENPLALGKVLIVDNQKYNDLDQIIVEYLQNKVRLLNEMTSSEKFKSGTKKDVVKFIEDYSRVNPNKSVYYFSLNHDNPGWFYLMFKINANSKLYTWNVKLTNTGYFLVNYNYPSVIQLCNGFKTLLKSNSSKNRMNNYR
Kind of test: fluorescence polarisation. On the technique in general: In fluorescence polarisation assays a small probe gives low polarisation when free and higher when bound to something large.

B1: 10xHis-mClover-Cdc73 (natural protein, S. cerevisiae, UniProt Q06697 1-393, looked up)
chain: MANSLDRLREHLKNGDKLVLKNNEGQSTDDITKATMVETLSSDGSTQDSFPLNEETEIEIDGSLVQLRIIVHCWMNKDSSAADYLADCQNKQLTNVSFLQRTDLINWLSGNTESSQYLKAPGQKGETSDKVDIENKTLAGELSTVKSTTSASLENDSEVSDPVVVETMKHERILVDHNSALRGAKPINFGYLIKDAELKLVQSIKGSLRGSKLPPGHKGAHGRISKTNGSSGGPRKDPIILIPSAASSILTVANIKQFLLESKYVNPRNLPSVPNGLVNIEKNFERISRPIRFIIVDNTRMFTKPEYWDRVVAIFTTGHTWQFNNYQWNSPQELFQRCKGYYFHFAGDSVPQHVQQWNVEKVELDKNKRFKDVEVVRYFWHSLEKELISRGYR
A word on the Kd: it is the free concentration of one partner at which half of the binding sites on the other are occupied at equilibrium, for simple one-to-one binding. Low values mean a tighter complex, high ones a looser complex. Take B1: the Kd was roughly 0.32 µM in test [1] and 0.77 µM with Spt6 (239-1451).

B2: 10xHis-mClover-Cdc73 W321A (natural protein, S. cerevisiae, UniProt Q06697 1-393, looked up)
chain: MANSLDRLREHLKNGDKLVLKNNEGQSTDDITKATMVETLSSDGSTQDSFPLNEETEIEIDGSLVQLRIIVHCWMNKDSSAADYLADCQNKQLTNVSFLQRTDLINWLSGNTESSQYLKAPGQKGETSDKVDIENKTLAGELSTVKSTTSASLENDSEVSDPVVVETMKHERILVDHNSALRGAKPINFGYLIKDAELKLVQSIKGSLRGSKLPPGHKGAHGRISKTNGSSGGPRKDPIILIPSAASSILTVANIKQFLLESKYVNPRNLPSVPNGLVNIEKNFERISRPIRFIIVDNTRMFTKPEYWDRVVAIFTTGHTAQFNNYQWNSPQELFQRCKGYYFHFAGDSVPQHVQQWNVEKVELDKNKRFKDVEVVRYFWHSLEKELISRGYR
Take B2: in test [1], the binding result is “binds”.

The record behind these values is paper PMC10250246 (Nucleic Acids Research, 2023).
